T1: APBA2_2, Q99767
T1 sequence (Q99767 654-744, limits assumed, looked up): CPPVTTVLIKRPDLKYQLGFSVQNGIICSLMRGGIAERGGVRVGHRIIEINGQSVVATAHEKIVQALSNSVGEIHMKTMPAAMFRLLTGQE

T2: ARHGAP21, Q5T5U3
T2 sequence (Q5T5U3 45-169, limits assumed, looked up): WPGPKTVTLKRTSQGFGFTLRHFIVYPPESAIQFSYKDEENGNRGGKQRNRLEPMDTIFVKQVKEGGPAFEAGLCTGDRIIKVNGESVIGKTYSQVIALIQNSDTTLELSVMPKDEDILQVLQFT

T3: CARD11, Q9BXL7
T3 sequence (Q9BXL7 662-765, limits assumed, looked up): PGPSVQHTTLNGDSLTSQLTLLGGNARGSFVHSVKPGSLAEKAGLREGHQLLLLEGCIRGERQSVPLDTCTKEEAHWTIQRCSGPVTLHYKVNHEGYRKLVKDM

T4: DFNB31_1, Q9P202
T4 sequence (Q9P202 135-233, limits assumed, looked up): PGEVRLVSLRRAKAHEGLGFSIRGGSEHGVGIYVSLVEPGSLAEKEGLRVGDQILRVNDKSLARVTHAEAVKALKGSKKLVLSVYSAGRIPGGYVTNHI

T5: DFNB31_2, Q9P202
T5 sequence (Q9P202 274-371, limits assumed, looked up): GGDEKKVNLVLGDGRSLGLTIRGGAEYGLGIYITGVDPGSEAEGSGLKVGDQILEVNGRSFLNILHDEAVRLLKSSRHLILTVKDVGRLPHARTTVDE

T6: DFNB31_3, Q9P202
T6 sequence (Q9P202 811-907, limits assumed, looked up): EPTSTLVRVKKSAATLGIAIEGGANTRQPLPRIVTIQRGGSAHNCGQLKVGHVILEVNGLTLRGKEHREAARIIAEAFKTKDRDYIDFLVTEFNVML

T7: HTRA3, P83110
T7 sequence (P83110 354-453, limits assumed, looked up): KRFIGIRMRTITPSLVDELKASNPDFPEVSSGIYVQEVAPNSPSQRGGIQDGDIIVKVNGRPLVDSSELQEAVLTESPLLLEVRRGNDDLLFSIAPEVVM

T8: LNX2_2, Q8N448
T8 sequence (Q8N448 334-432, limits assumed, looked up): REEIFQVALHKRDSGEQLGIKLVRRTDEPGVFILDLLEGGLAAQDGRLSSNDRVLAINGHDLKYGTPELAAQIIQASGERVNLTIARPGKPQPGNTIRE

T9: MPDZ_12, O75970
T9 sequence (O75970 1857-1958, limits assumed, looked up): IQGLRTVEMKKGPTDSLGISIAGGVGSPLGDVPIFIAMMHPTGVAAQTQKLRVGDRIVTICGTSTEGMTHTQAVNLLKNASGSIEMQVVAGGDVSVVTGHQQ

T10: RAPGEF6, Q8TEU7
T10 sequence (Q8TEU7 525-625, limits assumed, looked up): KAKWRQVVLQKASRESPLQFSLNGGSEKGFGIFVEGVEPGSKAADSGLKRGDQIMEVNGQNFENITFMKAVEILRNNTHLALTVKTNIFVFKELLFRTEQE

T11: SNTB1, Q13884
T11 sequence (Q13884 107-205, limits assumed, looked up): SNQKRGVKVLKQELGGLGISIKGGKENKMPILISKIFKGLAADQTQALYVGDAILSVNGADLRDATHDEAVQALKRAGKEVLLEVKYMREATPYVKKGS

T12: SNTG1, Q9NSN8
T12 sequence (Q9NSN8 52-150, limits assumed, looked up): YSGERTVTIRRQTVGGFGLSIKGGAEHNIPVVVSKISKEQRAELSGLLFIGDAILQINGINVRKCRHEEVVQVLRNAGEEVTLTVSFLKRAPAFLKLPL

T13: TJP3_3, O95049
T13 sequence (O95049 375-456, limits assumed, looked up): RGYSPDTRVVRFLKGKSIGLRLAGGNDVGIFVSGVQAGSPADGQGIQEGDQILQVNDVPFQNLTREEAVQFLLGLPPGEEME

B1: KCNA1, Q09470 (peptide)
chain: VNKSKLLTDV
B2: BAZ1A, Q9NRL2 (peptide)
chain: TPPAAKKSRI

Molecular target: T1, APBA2_2, Q99767
Assay: holdup assay
Parameters: key: below the threshold = too weak to quantify, mostly under pKd 3.1 to 4
Conditions: plain residues with an end cap or a label only (N-terminal biotin on a linker: ado-ado)

Binder | pKd
B1 | below the threshold
B2 | below the threshold

Molecular target: T2, ARHGAP21, Q5T5U3
Assay: holdup assay
Parameters: key: below the threshold = too weak to quantify, mostly under pKd 3.1 to 4
Conditions: plain residues with an end cap or a label only (N-terminal biotin on a linker: ado-ado)

Binder | pKd
B1 | below the threshold
B2 | 3.58

Molecular target: T3, CARD11, Q9BXL7
Assay: holdup assay
Parameters: key: below the threshold = too weak to quantify, mostly under pKd 3.1 to 4
Conditions: plain residues with an end cap or a label only (N-terminal biotin on a linker: ado-ado)

Binder | pKd
B1 | below the threshold
B2 | below the threshold

Molecular target: T4, DFNB31_1, Q9P202
Assay: holdup assay
Parameters: key: below the threshold = too weak to quantify, mostly under pKd 3.1 to 4
Conditions: plain residues with an end cap or a label only (N-terminal biotin on a linker: ado-ado)

Binder | pKd
B1 | below the threshold
B2 | 3.68

Molecular target: T5, DFNB31_2, Q9P202
Assay: holdup assay
Parameters: key: below the threshold = too weak to quantify, mostly under pKd 3.1 to 4
Conditions: plain residues with an end cap or a label only (N-terminal biotin on a linker: ado-ado)

Binder | pKd
B1 | below the threshold
B2 | below the threshold

Molecular target: T6, DFNB31_3, Q9P202
Assay: holdup assay
Parameters: key: below the threshold = too weak to quantify, mostly under pKd 3.1 to 4
Conditions: plain residues with an end cap or a label only (N-terminal biotin on a linker: ado-ado)

Binder | pKd
B1 | 3.56
B2 | 4.08

Molecular target: FRMPD4, Q14CM0
Sequence (Q14CM0 67-160): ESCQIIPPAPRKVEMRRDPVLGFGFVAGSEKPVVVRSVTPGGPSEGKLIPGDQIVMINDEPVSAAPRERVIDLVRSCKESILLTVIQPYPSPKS
Assay: holdup assay
Parameters: key: below the threshold = too weak to quantify, mostly under pKd 3.1 to 4
Conditions: plain residues with an end cap or a label only (N-terminal biotin on a linker: ado-ado)

Binder | pKd
B1 | below the threshold
B2 | below the threshold

Molecular target: GIPC2, Q8TF65
Sequence (Q8TF65 112-203): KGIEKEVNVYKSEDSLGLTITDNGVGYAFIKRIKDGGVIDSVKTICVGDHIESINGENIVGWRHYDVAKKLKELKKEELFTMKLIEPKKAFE
Assay: holdup assay
Parameters: key: below the threshold = too weak to quantify, mostly under pKd 3.1 to 4
Conditions: plain residues with an end cap or a label only (N-terminal biotin on a linker: ado-ado)

Binder | pKd
B1 | below the threshold
B2 | below the threshold

Molecular target: T7, HTRA3, P83110
Assay: holdup assay
Parameters: key: below the threshold = too weak to quantify, mostly under pKd 3.1 to 4
Conditions: plain residues with an end cap or a label only (N-terminal biotin on a linker: ado-ado)

Binder | pKd
B1 | below the threshold
B2 | below the threshold

Molecular target: IL16_3, Q14005
Sequence (Q14005 1107-1207): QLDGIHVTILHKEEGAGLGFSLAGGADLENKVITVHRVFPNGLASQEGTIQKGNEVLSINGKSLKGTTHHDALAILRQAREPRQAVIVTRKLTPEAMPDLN
Assay: holdup assay
Parameters: key: below the threshold = too weak to quantify, mostly under pKd 3.1 to 4
Conditions: plain residues with an end cap or a label only (N-terminal biotin on a linker: ado-ado)

Binder | pKd
B1 | below the threshold
B2 | below the threshold

Molecular target: Inadl_10, Q8NI35
Sequence (Q8NI35 1673-1763): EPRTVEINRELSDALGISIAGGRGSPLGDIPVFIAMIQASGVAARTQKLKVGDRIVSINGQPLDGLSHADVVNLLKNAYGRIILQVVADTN
Assay: holdup assay
Parameters: key: below the threshold = too weak to quantify, mostly under pKd 3.1 to 4
Conditions: plain residues with an end cap or a label only (N-terminal biotin on a linker: ado-ado)

Binder | pKd
B1 | below the threshold
B2 | below the threshold

Molecular target: Inadl_4, Q8NI35
Sequence (Q8NI35 547-651): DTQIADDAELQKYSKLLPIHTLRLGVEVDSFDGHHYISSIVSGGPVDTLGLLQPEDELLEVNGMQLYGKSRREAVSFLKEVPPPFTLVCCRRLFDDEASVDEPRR
Assay: holdup assay
Parameters: key: below the threshold = too weak to quantify, mostly under pKd 3.1 to 4
Conditions: plain residues with an end cap or a label only (N-terminal biotin on a linker: ado-ado)

Binder | pKd
B1 | below the threshold
B2 | below the threshold

Molecular target: T8, LNX2_2, Q8N448
Assay: holdup assay
Parameters: key: below the threshold = too weak to quantify, mostly under pKd 3.1 to 4
Conditions: plain residues with an end cap or a label only (N-terminal biotin on a linker: ado-ado)

Binder | pKd
B1 | below the threshold
B2 | below the threshold

Molecular target: MAGI2_6, Q86UL8
Sequence (Q86UL8 1141-1229): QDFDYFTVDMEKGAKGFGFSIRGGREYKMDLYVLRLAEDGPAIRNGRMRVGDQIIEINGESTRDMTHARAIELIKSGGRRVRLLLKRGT
Assay: holdup assay
Parameters: key: below the threshold = too weak to quantify, mostly under pKd 3.1 to 4
Conditions: plain residues with an end cap or a label only (N-terminal biotin on a linker: ado-ado)

Binder | pKd
B1 | 3.88
B2 | below the threshold

Molecular target: T9, MPDZ_12, O75970
Assay: holdup assay
Parameters: key: below the threshold = too weak to quantify, mostly under pKd 3.1 to 4
Conditions: plain residues with an end cap or a label only (N-terminal biotin on a linker: ado-ado)

Binder | pKd
B1 | below the threshold
B2 | below the threshold

Molecular target: NHERF4_2, Q86UT5
Sequence (Q86UT5 220-308): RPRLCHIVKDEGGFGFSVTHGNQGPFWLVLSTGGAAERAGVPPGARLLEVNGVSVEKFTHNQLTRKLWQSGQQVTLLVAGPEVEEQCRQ
Assay: holdup assay
Parameters: key: below the threshold = too weak to quantify, mostly under pKd 3.1 to 4
Conditions: plain residues with an end cap or a label only (N-terminal biotin on a linker: ado-ado)

Binder | pKd
B1 | below the threshold
B2 | below the threshold

Molecular target: NOS1, P29475
Sequence (P29475 9-101): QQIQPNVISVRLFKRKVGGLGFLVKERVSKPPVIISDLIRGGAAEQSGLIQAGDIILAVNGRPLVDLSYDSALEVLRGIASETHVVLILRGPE
Assay: holdup assay
Parameters: key: below the threshold = too weak to quantify, mostly under pKd 3.1 to 4
Conditions: plain residues with an end cap or a label only (N-terminal biotin on a linker: ado-ado)

Binder | pKd
B1 | below the threshold
B2 | 3.51

Molecular target: PICK1, Q9NRD5
Sequence (Q9NRD5 17-115): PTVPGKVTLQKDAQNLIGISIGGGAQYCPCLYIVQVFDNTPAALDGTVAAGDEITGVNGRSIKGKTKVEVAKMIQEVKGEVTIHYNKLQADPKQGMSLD
Assay: holdup assay
Parameters: key: below the threshold = too weak to quantify, mostly under pKd 3.1 to 4
Conditions: plain residues with an end cap or a label only (N-terminal biotin on a linker: ado-ado)

Binder | pKd
B1 | below the threshold
B2 | below the threshold

Molecular target: PTPN3, P26045
Sequence (P26045 505-587): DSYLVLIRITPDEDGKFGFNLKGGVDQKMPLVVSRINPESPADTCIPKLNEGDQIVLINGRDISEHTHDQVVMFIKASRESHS
Assay: holdup assay
Parameters: key: below the threshold = too weak to quantify, mostly under pKd 3.1 to 4
Conditions: plain residues with an end cap or a label only (N-terminal biotin on a linker: ado-ado)

Binder | pKd
B1 | 3.65
B2 | 3.93

Molecular target: T10, RAPGEF6, Q8TEU7
Assay: holdup assay
Parameters: key: below the threshold = too weak to quantify, mostly under pKd 3.1 to 4
Conditions: plain residues with an end cap or a label only (N-terminal biotin on a linker: ado-ado)

Binder | pKd
B1 | 3.53
B2 | 3.53

Molecular target: SCRIB_1, Q14160
Sequence (Q14160 718-814): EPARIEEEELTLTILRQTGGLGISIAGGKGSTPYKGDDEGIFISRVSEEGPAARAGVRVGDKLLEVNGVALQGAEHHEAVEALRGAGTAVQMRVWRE
Assay: holdup assay
Parameters: key: below the threshold = too weak to quantify, mostly under pKd 3.1 to 4
Conditions: plain residues with an end cap or a label only (N-terminal biotin on a linker: ado-ado)

Binder | pKd
B1 | 3.87
B2 | below the threshold

Molecular target: T11, SNTB1, Q13884
Assay: holdup assay
Parameters: key: below the threshold = too weak to quantify, mostly under pKd 3.1 to 4
Conditions: plain residues with an end cap or a label only (N-terminal biotin on a linker: ado-ado)

Binder | pKd
B1 | below the threshold
B2 | below the threshold

Molecular target: T12, SNTG1, Q9NSN8
Assay: holdup assay
Parameters: key: below the threshold = too weak to quantify, mostly under pKd 3.1 to 4
Conditions: plain residues with an end cap or a label only (N-terminal biotin on a linker: ado-ado)

Binder | pKd
B1 | below the threshold
B2 | below the threshold

Molecular target: SNX27, Q96L92
Assay: holdup assay
Parameters: key: below the threshold = too weak to quantify, mostly under pKd 3.1 to 4
Conditions: plain residues with an end cap or a label only (N-terminal biotin on a linker: ado-ado)

Binder | pKd
B1 | below the threshold
B2 | below the threshold

Molecular target: T13, TJP3_3, O95049
Assay: holdup assay
Parameters: key: below the threshold = too weak to quantify, mostly under pKd 3.1 to 4
Conditions: plain residues with an end cap or a label only (N-terminal biotin on a linker: ado-ado)

Binder | pKd
B1 | below the threshold
B2 | below the threshold

Source: article PMC9482650, “Quantitative fragmentomics allow affinity mapping of interactomes” (Nature Communications, 2022)
